Results taken from the supplement of paper PMC9732359.
± gives the uncertainty stated by the source.

Assay: protein stability index of a GFP-peptide fusion (yeast GPS) (PSI 1-4); higher = more stable; sorted into four equal gates, so the index is relative within each strain
In short: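 Tiled 17-residue peptides from yeast proteins were fused downstream of GFP on a plasmid that also expresses Cherry, and the pooled library was carried in yeast. Mid-log cultures grown in leucine-free medium were sorted into four equal gates by GFP/Cherry fluorescence ratio. Plasmids from each gate were PCR-amplified and Illumina-sequenced, and reads were assigned to strains by barcodes. Each peptide's protein stability index is the sum, over gates, of the gate's read frequency multiplied by its gate number.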

Row | Sequence | protein stability index (doa10∆) | protein stability index (pdr5∆) | protein stability index (san1∆) | protein stability index (ubr1∆)
1 | GSYIDKKCPFTGLVSIR [RPS11A] | 2.12 ± 0.07 | 2.06 ± 0.059 | 2.27 ± 0.081 | 2.2 ± 0.049
2 | LIKKPLTVFYAIKKFKT [SSN3] | 1.51 ± 0.11 | 1.56 ± 0.048 | 1.77 ± 0.091 | 1.42 ± 0.075
3 | RLKGDIFCVGSGQTFAY [PRE2] | 2.39 ± 0.05 | 1.77 ± 0.041 | 2.25 ± 0.019 | 1.79 ± 0.044
4 | DQCKKQRRCLHCGALNG [RPO31] | 2.6 ± 0.14 | 2.71 ± 0.18 | 2.4 ± 0.11 | 2.57 ± 0.11
5 | QVKKPRKQRVKKKTKKE [SWI1] | 3.13 ± 0.24 | 3.37 ± 0.13 | 3.5 ± 0.12 | 3.38 ± 0.1
6 | VLSDQVGSEKVLQDLRL [YJL039C/NUP192] | 3.12 ± 0.2 | – | – | –
7 | TQHKVTQYKAGKASLFA [RPL42A] | 3.29 ± 0.076 | 3.04 ± 0.062 | 2.99 ± 0.059 | 2.96 ± 0.068
8 | LPYPTYWSDKKADTDTL [SNF5] | 2.91 ± 0.11 | 2.92 ± 0.11 | 3.1 ± 0.07 | 2.88 ± 0.059
9 | QQYVAAGDLRALDTVTN [FAS1] | 2.88 ± 0.087 | 2.87 ± 0.081 | 2.92 ± 0.085 | 2.79 ± 0.13
10 | LLPNSKNVENTKNLSIL [DSN1] | 2.59 ± 0.1 | 2.5 ± 0.11 | 2.43 ± 0.12 | 2.83 ± 0.054
11 | IAATQDFITGSYLISHK [RPO31] | 3.03 ± 0.083 | 3.14 ± 0.085 | 2.83 ± 0.093 | 3.13 ± 0.038
12 | RFRKLTSQEINDRLEAL [PRE8] | 3.07 ± 0.14 | 3.01 ± 0.089 | 2.52 ± 0.24 | 2.91 ± 0.11
13 | DLDETTQTFNGSIFTHE [YML031W/NDC1] | 2.96 ± 0.05 | 2.85 ± 0.037 | 2.85 ± 0.038 | 2.92 ± 0.033
14 | KRKSAQEPELSLDQGDA [SMC4] | 3.23 ± 0.1 | 3.19 ± 0.1 | 3.09 ± 0.17 | 3.39 ± 0.099
15 | APHDSEATLLTNSNNGS [SNF5] | 3.05 ± 0.065 | 2.85 ± 0.061 | 2.91 ± 0.045 | 2.97 ± 0.043
16 | YSTIRQLVYKRGFGKIN [RPL7A] | 2.34 ± 0.064 | 1.97 ± 0.047 | 2.24 ± 0.11 | 1.98 ± 0.049
17 | SNGEVLEVGKNNFCALY [RPN14] | 2.34 ± 0.07 | 2.05 ± 0.11 | 1.64 ± 0.14 | 2.05 ± 0.036
18 | TTRNGFMEAQGAGIQII [FAS2] | 2.81 ± 0.13 | 2.31 ± 0.12 | – | 3.26 ± 0.11
19 | SNEAAKPSFSFPGKPVD [YOR098C/NUP1] | 2.84 ± 0.048 | 2.96 ± 0.048 | 3.01 ± 0.038 | 2.95 ± 0.047
20 | VLSLGRPNLPTHNFKLS [RGR1] | 3.04 ± 0.17 | – | – | –
21 | EWNGKSFQKKSNDKVVE [ISW2] | 3.14 ± 0.054 | 3.34 ± 0.058 | 3.01 ± 0.049 | 3.08 ± 0.064
22 | IVSFIVNCFHEDTELYQ [YJL039C/NUP192] | 1.62 ± 0.051 | 1.71 ± 0.051 | 2.22 ± 0.055 | 2.46 ± 0.036
23 | AKILSQAPTELELQVAQ [RPS7A] | 2.48 ± 0.048 | 2.75 ± 0.052 | 2.3 ± 0.053 | 2.5 ± 0.046
24 | AGLDKGISINNMMEHWD [RPO31] | 3.04 ± 0.13 | 3.09 ± 0.091 | 3.02 ± 0.086 | 3.14 ± 0.05
25 | SLSIEENIPVALCKNRK [POP1] | 2.76 ± 0.07 | 2.98 ± 0.1 | 2.75 ± 0.18 | 2.95 ± 0.1
26 | SKMLDAASSQVSIVKLD [SNF12] | 2.89 ± 0.086 | 2.89 ± 0.11 | 3.03 ± 0.096 | 2.95 ± 0.091
27 | LPTDGGLTSRLQRQQRK [POP4] | 2.95 ± 0.16 | 3.3 ± 0.17 | 3.13 ± 0.12 | 3.38 ± 0.12
28 | KALPMLEQVEFEKNTIL [MED4] | 3.02 ± 0.07 | 3.04 ± 0.083 | 2.65 ± 0.064 | 3.08 ± 0.083
